Data published in paper PMC4926069.

Target: Angiotensin I-converting enzyme (ACE, EC 3.4.15.1, from rabbit lung) (rabbit) (UniProt P12822)
Chain of UniProt P12822 (P12822 34-1310): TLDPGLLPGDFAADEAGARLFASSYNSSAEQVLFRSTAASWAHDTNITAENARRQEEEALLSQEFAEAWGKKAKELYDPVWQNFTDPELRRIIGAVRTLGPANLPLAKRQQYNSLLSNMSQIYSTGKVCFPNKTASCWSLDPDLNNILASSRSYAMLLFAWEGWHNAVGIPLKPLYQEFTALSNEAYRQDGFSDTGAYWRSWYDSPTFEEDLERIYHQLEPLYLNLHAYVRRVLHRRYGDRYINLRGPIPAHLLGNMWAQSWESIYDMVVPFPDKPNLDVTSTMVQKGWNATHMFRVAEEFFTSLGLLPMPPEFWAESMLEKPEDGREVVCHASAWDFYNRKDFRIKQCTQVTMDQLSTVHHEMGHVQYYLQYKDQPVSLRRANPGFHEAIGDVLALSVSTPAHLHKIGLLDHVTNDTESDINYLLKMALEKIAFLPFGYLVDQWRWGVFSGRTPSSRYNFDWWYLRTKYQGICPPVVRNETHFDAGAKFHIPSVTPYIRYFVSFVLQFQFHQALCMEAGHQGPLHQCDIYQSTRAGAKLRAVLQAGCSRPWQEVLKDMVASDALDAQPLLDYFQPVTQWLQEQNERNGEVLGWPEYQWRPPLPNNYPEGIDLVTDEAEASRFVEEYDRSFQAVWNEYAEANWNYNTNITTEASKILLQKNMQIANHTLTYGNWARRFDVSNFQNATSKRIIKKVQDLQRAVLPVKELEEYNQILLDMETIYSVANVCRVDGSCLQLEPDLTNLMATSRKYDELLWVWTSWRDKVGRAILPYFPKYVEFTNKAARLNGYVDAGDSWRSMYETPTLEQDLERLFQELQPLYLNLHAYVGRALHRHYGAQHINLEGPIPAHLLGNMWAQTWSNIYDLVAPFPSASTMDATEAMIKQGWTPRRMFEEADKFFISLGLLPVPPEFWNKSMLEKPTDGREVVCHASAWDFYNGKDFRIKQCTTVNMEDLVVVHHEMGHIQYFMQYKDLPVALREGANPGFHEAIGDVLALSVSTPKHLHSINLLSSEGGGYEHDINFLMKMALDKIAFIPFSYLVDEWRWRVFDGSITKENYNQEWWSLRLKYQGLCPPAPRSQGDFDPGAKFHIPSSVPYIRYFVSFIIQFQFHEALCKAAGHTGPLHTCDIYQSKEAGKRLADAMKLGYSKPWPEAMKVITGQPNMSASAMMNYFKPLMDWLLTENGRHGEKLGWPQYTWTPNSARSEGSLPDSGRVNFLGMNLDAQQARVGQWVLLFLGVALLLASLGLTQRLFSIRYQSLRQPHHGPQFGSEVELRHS

IC50 of inhibition of ACE activity (HHL as substrate, hippuric acid measured by RP-HPLC; 0.25–100 μM peptide, four-parameter logistic fit): 9.8 μM
Substance: Val-Gln-Tyr (VQY) (peptide)
